Assay [1] concerns the target T1, GST fusion of the FAT (focal adhesion targeting) domain of focal adhesion kinase, human FAK 892-1052 (human, UniProt Q05397 892-1052).
T1 construct: focal adhesion kinase (FAK), human, FAT domain, residues 892-1052; Cloned into pGEX4T1; For the pull-down provided by Dr. M. K. Hoellerer; for bio-layer interferometry the same construct was synthesised (GeneArt) and made by the same procedure; also called GST-FAT; GST labeled FAT; source: E. coli BL21 (DE3), purified using GST-4B beads
T1 sequence (looked up): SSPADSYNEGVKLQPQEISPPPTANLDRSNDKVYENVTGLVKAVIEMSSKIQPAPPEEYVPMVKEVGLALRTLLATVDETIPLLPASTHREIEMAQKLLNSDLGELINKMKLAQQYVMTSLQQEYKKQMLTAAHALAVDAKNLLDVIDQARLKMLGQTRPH
The assay is described as follows: BLI; GST-FAT immobilised on Anti-GST biosensors (20 μg/ml in PBS), paxillin constructs as analytes in PBS with Tween 20 (0.05%) and BSA (1%), Octet RED96, global fitting (B2 1:1 model, C35_1 to C35_3 2:1 model). The conditions noted are these: both partners purified. On the technique in general: Biolayer interferometry detects binding as a change in optical thickness at a sensor tip.

For assay [2], the target named is T1, GST fusion of the FAT (focal adhesion …). The assay is described as above. The following applies: both partners purified. This is another data set of the same source.

Consider four molecules from paper PMC4771712, “Deciphering Mode of Action of Functionally Important Regions in the Intrinsically Disordered Paxillin (Residues 1-313) Using Its Interaction with FAT (Focal Adhesion Targeting Domain of Focal Adhesion Kinase)” (PLoS ONE, 2016).

B1: paxillin Construct C35_2 (79-189) (domain or fragment, human, UniProt P49023-2 79-189, looked up)
chain: QQPQSSSPVYGSSAKTSSVSNPQDSVGSPCSRVGEEEHVYSFPNKQKSAEPSPTVMSTSLGSNLSELDRLLLELNAVQHNPPGFPADEANSSPPLPGALSPLYGVPETNSP
notes: human paxillin residues 79-189; Cloned into pET28a; source: E. coli BL21DE3, purified
In the case of B1, in assay [1], the dissociation constant Kd (usually the concentration at which binding is half-saturated) came out at 16.9 µM; the koff – broadly, the first-order rate constant of dissociation – came to 0.164 s⁻¹; the kon (usually a measure of how fast the partners come together) stood at 9710 M⁻¹ s⁻¹. Further, the stoichiometry N – broadly, the number of molecules, sites or subunits per partner or assembly – in assay [2] came to 2 construct per FAT.

B2: paxillin Construct C35_3 (105-189) (domain or fragment, human, UniProt P49023-2 105-189, looked up)
chain: GSPCSRVGEEEHVYSFPNKQKSAEPSPTVMSTSLGSNLSELDRLLLELNAVQHNPPGFPADEANSSPPLPGALSPLYGVPETNSP
notes: human paxillin residues 105-189; Cloned into pET28a; source: E. coli BL21DE3, purified
For the molecule B2, in assay [1], the Kd worked out at 1.45 µM, the dissociation rate constant (koff) is 0.106 s⁻¹ and the on-rate (kon) stood at 72900 M⁻¹ s⁻¹. Moreover, the “stoichiometry N” value in assay [2] was found to be 2 construct per FAT.

B3: paxillin Construct C35_1 (54-189) (domain or fragment, human, UniProt P49023-2 54-189, looked up)
chain: SSEALNGTILDPLDQWQPSSSRFIHQQPQSSSPVYGSSAKTSSVSNPQDSVGSPCSRVGEEEHVYSFPNKQKSAEPSPTVMSTSLGSNLSELDRLLLELNAVQHNPPGFPADEANSSPPLPGALSPLYGVPETNSP
notes: human paxillin residues 54-189; Cloned into pET28a; source: E. coli BL21DE3, purified
In assay [1], B3 came in with an equilibrium dissociation constant (Kd) of 5.39 µM, a koff of 0.121 s⁻¹ and an on-rate (kon) of 22500 M⁻¹ s⁻¹. Also, in assay [2], the “stoichiometry N” value is 2 construct per FAT.

B4: paxillin construct B2, expressed in E. coli for bio-layer interferometry (domain or fragment)
chain: SSEALNGTILDPLDQWQPSSSRFIHQQPQSSSPVYGSSAKTSSVSNPQDSVGSPCSRVGEEEHVYSFPNKQKSAEPSPTVMSTSLGSNLSELDRLLLELNAVQHNPPGFPADEANSSPPLPGALSPLYGVPETNSPLGGKAGPLTKEKPKRNGGRGLEDVRPSVESLLDELESSVPSPVPAITVNQGEMSSPQRVTSTQQQTRISASSATRELDELMASLSDFKFM
In assay [1], B4 had a Kd of 0.0361 µM, a koff of 0.00171 s⁻¹ and an on-rate constant (kon) of 47500 M⁻¹ s⁻¹. Further, in assay [2], the “stoichiometry N” value amounted to 1 construct per FAT.
